Reference: the RNAGym collection of RNA variant scans (doi:10.7554/elife.80360)

B1: CPEB3 Ribozyme (parent)
chain: GGGGGCCACAGCAGAAGCGUUCACGUCGCGGCCCCUGUCAGAUUCUGGUGAAUCUGCGAAUUCUGCUGU

Variants of: B1
Assay: self-cleavage, relative activity (ratio to wild type); higher = more cleavage; co-transcriptional

Compared with GGGGGCCACCGCAGAAGCGUUCACGUCGCGGCCCCUGUCAGAUUCUGGUGAAGCUGCGAAUUCUGCUGU, GGGGGCCACCGCAGAAGCCUUCACGUCGCGGCCCCUGUCAGAUUCUGGUGAAUCUGCGAAUUCUGCUGU is lower in self-cleavage: 0.927 for the first, 0.097 for the second.

First: GGGGGCCACCGCAGAAGCUUUCACGUCGCGGCCCCUGUCAGAUUCUGGUGAAUCUGCGAAUUCUGCUGU
Second: GGGGGCCACCGCAGAAGCGUUCACGUCGCGGCCCCUGUCAGAUGCUGGUGAAUCUGCGAAUUCUGCUGU
The self-cleavage of the first is lower: 0.446 for the first, 1.02 for the second.

Going from GGGGGCCACCGCAGAAGCGUUCACGUCGCGGCCCCUGUCAGAUUGUGGUGAAUCUGCGAAUUCUGCUGU to GGGGGCCACCGCAGAAGCGUUCACGUCGCGGCCCCUGUCAGAUUCUGGUGAAUCUGCGAAUUGUGCUGU, the self-cleavage falls from 1.05 to 0.629.

First: GGGGGCCACCGCAGAAGCGUUCACGUCCCGGCCCCUGUCAGAUUCUGGUGAAUCUGCGAAUUCUGCUGU
Second: GGGGGCCAUAGCAGAAGCGUUCACGUCGCGGCCCCUGUCAGAUUCUGGUGAAUCUGCGAACUCUGCUGU
The self-cleavage of the first is lower: 0.102 for the first, 0.866 for the second.

First: GGGGGCCACCGCAGAAGCGUUCACGUCGCGGCCCCUGUCAGAUUCUGGUGAAUCUGCGAAUUCUGUUGU
Second: GGGGGCCACCGCAGAAGCGUUCACGUCGCGGCCCCUGUCAGAUUCUGGUGAAUCUGCGAAUUCUGGUGU
The self-cleavage of the first is higher: 0.974 for the first, 0.892 for the second.

Going from GGGGGCCACCGCAGAAGCGUUCACGUCGCGGCCCCUGUCAGAUUCUGGUGAAUCUGCGAAUUCUGAUGU to GGGGGCCACCGCAGAAGCGUUCACGUCGCGGCCCCUGUCAGAUUCUGGUGAAUCUGCAAAUUCUGCUGU, the self-cleavage rises from 0.862 to 0.961.

Compared with GGGGGCCACCCCAGAAGCGUUCACGUCGCGGCCCCUGUCAGAUUCUGGUGAAUCUGCGAAUUCUGCUGU, GGGGGCCAUAGCAGAAGCGUGCACGUCGCGGCCCCUGUCAGAUUCUGGUGAAUCUGCGAAUUCUGCUGU is higher in self-cleavage: 0.764 for the first, 0.801 for the second.

Going from GGGGGCCAUAGCAGAAGCGUACACGUCGCGGCCCCUGUCAGAUUCUGGUGAAUCUGCGAAUUCUGCUGU to GGGGGCCACCGCAGAAGCGUUCACGUCGCGGCCCCUGUCAGAUUCUGGUGAAUGUGCGAAUUCUGCUGU, the self-cleavage rises from 0.932 to 0.993.

First: GGGGGCCACCGCAGAAGCGUUCACGUCGCGGCCCCUGUCAGAUUCUGGUGAAUUUGCGAAUUCUGCUGU
Second: GGGGGCCACCGCAGAAGCGUUCACGUCGCGGCCCCUGUCAGAUUCUGGUGAAUAUGCGAAUUCUGCUGU
The self-cleavage of the first is higher: 1.02 for the first, 0.896 for the second.

Going from GGGGGCCAUAGCAGAAGCGUUCACGUCGCGGCCCCUGUCAGAUGCUGGUGAAUCUGCGAAUUCUGCUGU to GGGGGCCACCGCAGAAGCGUUAACGUCGCGGCCCCUGUCAGAUUCUGGUGAAUCUGCGAAUUCUGCUGU, the self-cleavage falls from 1.06 to 0.161.

Going from GGGGGCCACCGCAGAAUCGUUCACGUCGCGGCCCCUGUCAGAUUCUGGUGAAUCUGCGAAUUCUGCUGU to GGGGGCCACCGCAGAAGCGUUCACGUCGCGGCCCCUGUCAGAUUCUGGGGAAUCUGCGAAUUCUGCUGU, the self-cleavage rises from 0.464 to 1.04.

First: GGGGGCCACCGCAGAAGCGUUCACUUCGCGGCCCCUGUCAGAUUCUGGUGAAUCUGCGAAUUCUGCUGU
Second: GGGGGCCACCGCAGAAGCGUUCACGUCGCGGCCGCUGUCAGAUUCUGGUGAAUCUGCGAAUUCUGCUGU
The self-cleavage of the first is lower: 0.0666 for the first, 0.868 for the second.

First: GGGGGCCACCGCAGAAGCGUUCACGUCGCGGCCCCUGUCACAUUCUGGUGAAUCUGCGAAUUCUGCUGU
Second: GGGGGCCACCGCAGAAGCGUUCACGUCGCGGCCCCUGUCAUAUUCUGGUGAAUCUGCGAAUUCUGCUGU
The self-cleavage of the first is lower: 0.798 for the first, 0.826 for the second.

Compared with GGGGGCCACCGCAGAAGCGUUCACGUCGCGGCCCCUGUCAAAUUCUGGUGAAUCUGCGAAUUCUGCUGU, GGGGGCCAUAGCAGAAGCGUUCACGGCGCGGCCCCUGUCAGAUUCUGGUGAAUCUGCGAAUUCUGCUGU is higher in self-cleavage: 0.824 for the first, 0.942 for the second.

Going from GGGGGCCAUAGCAGAAGCGUUCACGACGCGGCCCCUGUCAGAUUCUGGUGAAUCUGCGAAUUCUGCUGU to GGGGGCCACCGCAGAAGCGUUCACGUCGCGGCCCCUGUCAGAUUCUCGUGAAUCUGCGAAUUCUGCUGU, the self-cleavage rises from 0.929 to 1.

Compared with GGGGGCCAUAGCAGAAGCGUUCACGUCGCGGCCCCUGUCAGAGUCUGGUGAAUCUGCGAAUUCUGCUGU, GGGGGCCACCGCAGAAGCGUUCACGUCGCGGCCCCUGUCGGAUUCUGGUGAAUCUGCGAAUUCUGCUGU is higher in self-cleavage: 0.967 for the first, 0.976 for the second.

Going from GGGGGCCACCGCAGAAGCGUUCACGUCGCGGCCCCGGUCAGAUUCUGGUGAAUCUGCGAAUUCUGCUGU to GGGGGCCACCGCAGAAGCGUUCACGUCGCGGCCCCAGUCAGAUUCUGGUGAAUCUGCGAAUUCUGCUGU, the self-cleavage falls from 0.246 to 0.226.

Going from GGGGGCCACCGCAGAAGCGUUCACGUCGCGGCCCCCGUCAGAUUCUGGUGAAUCUGCGAAUUCUGCUGU to GGGGGCCACCGCAGAAGCGUUCACGUCGCGGCCCCUGUCAGAUUCUGCUGAAUCUGCGAAUUCUGCUGU, the self-cleavage rises from 0.966 to 0.992.

Going from GGGGGCCACCGCAGAAGCGUUCACGUCGCGGCCCCUGUCAGAUUCUGUUGAAUCUGCGAAUUCUGCUGU to GGGGGCCAUAGCAGAAGCGGUCACGUCGCGGCCCCUGUCAGAUUCUGGUGAAUCUGCGAAUUCUGCUGU, the self-cleavage falls from 1.02 to 0.17.

Compared with GGGGGCCACCGCAGAAGCGUUCACGUCGCGCCCCCUGUCAGAUUCUGGUGAAUCUGCGAAUUCUGCUGU, GGGGGCCAUAGCAGAAGCGUUCACGUCGCGGCCCCUGUCAGAUUCUGGUGAACCUGCGAAUUCUGCUGU is higher in self-cleavage: 0.233 for the first, 0.931 for the second.

First: GGGGGCCACCGCAGAAGCGUUCACGUCGCGGCCCCUGACAGAUUCUGGUGAAUCUGCGAAUUCUGCUGU
Second: GGGGGCCACCGCAGAAGCGUUCACGUCGCGGCCCCUGGCAGAUUCUGGUGAAUCUGCGAAUUCUGCUGU
The self-cleavage of the first is higher: 0.869 for the first, 0.248 for the second.

First: GGGGGCCACCGCAGAAGCGUUCACGUCGCGGCUCCUGUCAGAUUCUGGUGAAUCUGCGAAUUCUGCUGU
Second: GGGGGCCACCGCAGAAGCGUUCACGUCGCGGCCCCUGUUAGAUUCUGGUGAAUCUGCGAAUUCUGCUGU
The self-cleavage of the first is higher: 0.98 for the first, 0.877 for the second.

Compared with GGGGGCCACCGCAGAAGCGUCCACGUCGCGGCCCCUGUCAGAUUCUGGUGAAUCUGCGAAUUCUGCUGU, GGGGGCCACCGCAGAAGCGUGCACGUCGCGGCCCCUGUCAGAUUCUGGUGAAUCUGCGAAUUCUGCUGU is lower in self-cleavage: 0.905 for the first, 0.535 for the second.

Going from GGGGGCCACCGCAGAAGCGUUCACGUCGCGGCCCCUGUCAGAUUCUGGUGAUUCUGCGAAUUCUGCUGU to GGGGGCCACCGCAGAAGCGUUCACGUCGCGGCCCCUGUCAGAUUCUGGUGACUCUGCGAAUUCUGCUGU, the self-cleavage rises from 0.985 to 0.986.

Compared with GGGGGCCACCGCAGAAGCGUUCACGUCGUGGCCCCUGUCAGAUUCUGGUGAAUCUGCGAAUUCUGCUGU, GGGGGCCAUAGCAGAAGCGUUCACGUCGCGGCCCCUGUCAGAUUCUGGUGAAUCUGCGAAUUCUACUGU is higher in self-cleavage: 0.221 for the first, 0.965 for the second.

First: GGGGGCCACCGCAGAAGCGUUCACGUCGCGGCCCCUGUCAGCUUCUGGUGAAUCUGCGAAUUCUGCUGU
Second: GGGGGCCACCGCAGAAGCGUUCACGUCGCGGCCCCUGUCAGGUUCUGGUGAAUCUGCGAAUUCUGCUGU
The self-cleavage of the first is higher: 0.961 for the first, 0.896 for the second.

Compared with GGGGGCCACCGCAGAAGCGUUCACGUCGCGGCCCCUGUCAGAUUCUGGUUAAUCUGCGAAUUCUGCUGU, GGGGGCCACCGCAGAAGCGUUCACGUCGCGGCCCCUGUCAGAUUCUGGUCAAUCUGCGAAUUCUGCUGU is lower in self-cleavage: 1 for the first, 0.996 for the second.

Compared with GGGGGCCACCGCAGAAGCGUUCGCGUCGCGGCCCCUGUCAGAUUCUGGUGAAUCUGCGAAUUCUGCUGU, GGGGGCCAUAGCAGAAGCGUUCACGUCGCGGCCCCUGUCAGAUUCUGGUGAAUCUGCGAAUUCUGCUCU is higher in self-cleavage: 0.94 for the first, 1.03 for the second.

Going from GGGGGCCACCGCACAAGCGUUCACGUCGCGGCCCCUGUCAGAUUCUGGUGAAUCUGCGAAUUCUGCUGU to GGGGGCCACCGCAGAAGCGUUCACGUCGCGGCCCCUGUCAGAUUCUGGUGAAUCUGCGGAUUCUGCUGU, the self-cleavage rises from 0.252 to 1.

Going from GGGGGCCACCGCAGAAGCGUUCACGUCGCGGCCCCUGUCAGAUUCUGGUGAAUCUGCGCAUUCUGCUGU to GGGGGCCAUAGCAGAAGCGUUCACGUCGCGGCCCCAGUCAGAUUCUGGUGAAUCUGCGAAUUCUGCUGU, the self-cleavage falls from 0.832 to 0.312.

First: GGGGGCCAUAGCAGAAGCGUUCACGUCGCGGCCCCCGUCAGAUUCUGGUGAAUCUGCGAAUUCUGCUGU
Second: GGGGGCCACCGCAGAAGCGUUCACGUCGCGGCCCCUGUCAGAUUCCGGUGAAUCUGCGAAUUCUGCUGU
The self-cleavage of the first is higher: 1.02 for the first, 0.98 for the second.

Going from GGGGGCCACCGCAGAAGCGUUCACGUCGCGGCCCCUGUCAGAAUCUGGUGAAUCUGCGAAUUCUGCUGU to GGGGGCCACCGCAGAAGCGUUCACGUCGCGGCCCCUGUCAGACUCUGGUGAAUCUGCGAAUUCUGCUGU, the self-cleavage rises from 0.892 to 0.965.

First: GGGGGCCACCGCAGAAGCGUUCACGUCGCGGCCCCUGUCAGAGUCUGGUGAAUCUGCGAAUUCUGCUGU
Second: GGGGGCCAUAGCAGAAGCGUUCACGUCGCGGCCCCUGUCAGAUUCUGGUGAAUCUGCGAAUCCUGCUGU
The self-cleavage of the first is lower: 0.808 for the first, 0.966 for the second.

Compared with GGGGGCCAUAGCAGAAGCGUUCACGUCGCGGCCCCUGUCAGAUUCUGGUGAAUCUGCGAAUACUGCUGU, GGGGGCCACCGCAGAAGCGUUCACGUCGCGGCCCCUGUCAGAUUCUGGUGAAUCUACGAAUUCUGCUGU is lower in self-cleavage: 0.997 for the first, 0.989 for the second.

Compared with GGGGGCCACCGCAGAAGCGUUCACGUCGCGGCCCCUGUCAGAUUCUGGUGAAUCUUCGAAUUCUGCUGU, GGGGGCCACCGCAGAAGCGUUCACGUCGCGGGCCCUGUCAGAUUCUGGUGAAUCUGCGAAUUCUGCUGU is lower in self-cleavage: 0.936 for the first, 0.418 for the second.

Going from GGGGGCCACCGCAGAAGCGUUCACGUCGCGGCCCCUAUCAGAUUCUGGUGAAUCUGCGAAUUCUGCUGU to GGGGGCCAUAGCAGAAGCGUUCACGUCGCGGCCCCUGUCAGAUUCUGGUGAAUCUGCAAAUUCUGCUGU, the self-cleavage rises from 0.242 to 1.03.

Going from GGGGGCCAUAGCAGAAGCGUUCACGUCGCGGCCCCUGUCAGAUUCUGGUGAAUCUGCUAAUUCUGCUGU to GGGGGCCACCGCAGAAGUGUUCACGUCGCGGCCCCUGUCAGAUUCUGGUGAAUCUGCGAAUUCUGCUGU, the self-cleavage falls from 1.02 to 0.882.

Compared with GGGGGCCACCGCAGAAGAGUUCACGUCGCGGCCCCUGUCAGAUUCUGGUGAAUCUGCGAAUUCUGCUGU, GGGGGCCACCGCAGAAGCGUUCACGUGGCGGCCCCUGUCAGAUUCUGGUGAAUCUGCGAAUUCUGCUGU is lower in self-cleavage: 0.12 for the first, 0.0915 for the second.

First: GGGGGCCACCGCAGAAGCGUUCAGGUCGCGGCCCCUGUCAGAUUCUGGUGAAUCUGCGAAUUCUGCUGU
Second: GGGGGCCAUAGCAGAAGCGUUCACGUCGCGGCCCCUGUCAGAUUCUGGUGAAUCUGCGAAUUCUGCUGC
The self-cleavage of the first is lower: 0.478 for the first, 1.07 for the second.
